Experimental findings from patent publication EP4242225A1 are described below.

Conditions in all cases: remark: other sources report otherwise
In experiment [1] the target is T1, RBD-FH, monomeric RBD (332-534) with a FLAG peptide and an 8xHis-tag at the C-terminus (SARS-CoV-2), P0DTC2.
Experiment [2] addresses RBD-Fc, Wuhan strain (WA1) (SARS-CoV-2; human), P0DTC2.
The target in experiment [3] is T1, RBD-FH, monomeric RBD (332-534) with a …. The source holds these as a separate data set.

Read-outs that look alike come from different tables or passages of the source.

B1: Nb 1.10 (VHH)
VHH: QVQLVESGGGSVQAGGSLRLSCAASGYTYSTCRKGWYRQAPGKERELVASITADGATYYLDSVKGRLTISQDNAKNTVYLQMNSLKPEDTAVYYCAASVKDFTCTFNSWGQGTQVTVSS
The term Kd denotes the concentration at which binding is half-saturated. A low value points to a tighter complex. In general, koff refers to the rate constant with which the complex falls apart. One may read the kon as the rate constant with which the complex forms. The low end stands for slower complex formation, the high end for faster complex formation. In experiment [1], B1 yielded an equilibrium dissociation constant (Kd) of 3960 pM, a koff of 0.00137 s⁻¹ and a kon of 345000 M⁻¹ s⁻¹.

B2: hcAb 1.10 (Fc fusion)
heavy: QVQLVESGGGSVQAGGSLRLSCAASGYTYSTCRKGWYRQAPGKERELVASITADGATYYLDSVKGRLTISQDNAKNTVYLQMNSLKPEDTAVYYCAASVKDFTCTFNSWGQGTQVTVSS
B2 gave a % inhibition of RBD binding to hACE2 in experiment [2] above 95%. Besides, in experiment [3], the Kd came out at 350 pM, the koff was 0.000237 s⁻¹ and the kon was determined as 679000 M⁻¹ s⁻¹.

B3: hcAb 2.15 (Fc fusion)
heavy: QVQLVESGGGSVQAGGSLKLSCAASGYASWARKCIGWFRQAPGQEREGVAAIFDFDGSTYYSDSVKGRFTISGDNAKNTVSLQMNSLLPKDTAVYYCTVAFGTCDNWYRGRGDYWGQGTQVTVSS
In the case of B3, the % inhibition of RBD binding to hACE2 in experiment [2] is above 95%. Moreover, in experiment [3], the Kd worked out at 80 pM, the koff came to 0.00012 s⁻¹ and the kon was found to be 1.42e+06 M⁻¹ s⁻¹.

B4: Nb 2.15 (VHH)
VHH: QVQLVESGGGSVQAGGSLKLSCAASGYASWARKCIGWFRQAPGQEREGVAAIFDFDGSTYYSDSVKGRFTISGDNAKNTVSLQMNSLLPKDTAVYYCTVAFGTCDNWYRGRGDYWGQGTQVTVSS
In experiment [1], B4 showed a Kd of 390 pM, a koff of 0.000778 s⁻¹ and a kon of 2.02e+06 M⁻¹ s⁻¹.
